{
  "source": "paper PMC9951844",
  "binders": {"B1": {"name": "YB9-258 (antibody, V domains shown)", "VH": "EVQLVESGGGLIQPGGSLRLSCAASGLTVSSNYMHWVRQAPGKGLEWVSVLYAGGSAFYADSVKGRFTISRNNSKNTLYLQMNSLRAEDTAIYYCARGLGDYLDSWGQGTLVTVSS", "VL": "DIQMTQSPSSVSASVGDRVTITCRASQGIGSWLAWYQQKPGKAPQLLIYAASTLQSGVPPRFSGSGSGTDFTLTITSLQPEDFASYYCQQANSVLALTFGGGTKVEIK"}},
  "key": {"[1]": {"molecular_target": "SARS-CoV-2 Delta spike antigen of the SPR column (construct not stated) (SARS-CoV-2)", "experiment": "SPR"}, "[2]": {"molecular_target": "SARS-CoV-2 Omicron BA.1 spike antigen of the SPR column (construct not stated) (SARS-CoV-2)", "experiment": "SPR"}},
  "data": [
    {"binder": "B1", "values": [
      {"measurement": "Kd", "setting": "[1]", "value": 0.00391, "unit": "nM"},
      {"measurement": "Kd", "setting": "[2]", "value": 6.06, "unit": "nM"}
    ]}
  ]
}
